From US20240294632A1 (XL PROTEIN, published 2024)

T1: P/A #1 sequence
T1 construct: in sentences on specificity it stands for P/A #1 polypeptides in general
T1 peptide: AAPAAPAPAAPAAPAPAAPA

T2: PASylated Thymosin alpha 1
T2 construct: also called PASylated Tα1
T2 chain: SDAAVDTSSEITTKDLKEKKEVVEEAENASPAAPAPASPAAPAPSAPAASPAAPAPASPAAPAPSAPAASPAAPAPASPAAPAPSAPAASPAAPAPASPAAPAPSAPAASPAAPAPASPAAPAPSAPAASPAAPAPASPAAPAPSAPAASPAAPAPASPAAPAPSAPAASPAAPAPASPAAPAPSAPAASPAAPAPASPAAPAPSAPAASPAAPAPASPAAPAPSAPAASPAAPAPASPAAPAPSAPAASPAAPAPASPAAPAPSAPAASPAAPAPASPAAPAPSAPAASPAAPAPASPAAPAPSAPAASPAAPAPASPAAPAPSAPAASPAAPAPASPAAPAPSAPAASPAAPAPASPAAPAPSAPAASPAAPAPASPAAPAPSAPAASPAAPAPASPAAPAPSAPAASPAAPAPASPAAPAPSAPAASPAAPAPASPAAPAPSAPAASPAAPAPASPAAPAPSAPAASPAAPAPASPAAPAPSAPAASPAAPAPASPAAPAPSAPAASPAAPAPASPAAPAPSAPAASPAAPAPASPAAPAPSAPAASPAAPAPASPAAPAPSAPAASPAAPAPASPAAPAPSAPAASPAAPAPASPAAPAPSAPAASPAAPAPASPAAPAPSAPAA

B1: Anti-PA(S) MAb 3.1 (antibody, V domains shown)
VH: QVQLQQSGAELVRPGASVKLSCKALGYIFTDYEMHWVKQTPVHGLEWIGVIHPGSGNTVYNQKFQGKATLTADKSSSTAYMEVSSLTSEDSAVYYCNLWGRWGQGTTLTVSS
VL: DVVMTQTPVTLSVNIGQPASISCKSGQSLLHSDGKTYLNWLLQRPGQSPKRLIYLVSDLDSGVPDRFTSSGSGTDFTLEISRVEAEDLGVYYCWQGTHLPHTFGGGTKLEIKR
notes: Mouse monoclonal IgG from hybridoma (culture supernatant); also called DSM ACC3367
B2: Anti-PA(S) MAb 1.1 (antibody, V domains shown)
VH: QVQLKESGPGLVAPSQSLSITCTVSGFSLTGYGVNWVRQPPGKGLEWLGMIWGDGITDYNSALKSRLSISKDNSKSQVFLKMNSLQTDDTARYYCARDYYGRRYYAMDYWGQGTSVTVSS
VL: DIVLTQSPASLAVSLGQRATISCRASKSVSSSGYNYMFWYQQKPGQPPKLLIYLASNLESGVPDRFWGSGSGTDFTLNIHPVEEEDAATYYCQHSRELPLTFGAGTKLELKR
notes: Mouse monoclonal IgG from hybridoma (culture supernatant); also called anti-PAS 1.1 MAb; DSM ACC3365
B3: Anti-PA(S) MAb 2.1 (antibody, V domains shown)
VH: QVTLKESGPGILQPSQTLSLTCSFSGFSLSTYDMGVGWIRQPSGKGLEWLANIWWNDNKYYNSALKSRLTISKDTSNNQVFLKISSVDATDTATYYCAQMRDNYGVWFAFWGQGTLVTVSA
VL: DIVMSQSPSSLAVSVGEKVTMSCKSSQSLFYSNREKNYLAWYQQKPGQSPKLLIYWASTRESGVPDRFTGSGSGTDFTLTISNVKAEDLAVYYCQQYYNYPTFGAGTKLELKR
notes: Mouse monoclonal IgG from hybridoma (supernatant or protein G purified); also called DSM ACC3366

Assays:
IL1Ra (Kineret/Anakinra) [1] = target: T3, IL1Ra (Kineret/Anakinra) (UniProt P18510 26-177); assay: western blot, hybridoma supernatant 1:2000
T3 construct: Commercial drug product; also called non-PASylated protein version
T3 sequence (P18510 26-177 limits assumed): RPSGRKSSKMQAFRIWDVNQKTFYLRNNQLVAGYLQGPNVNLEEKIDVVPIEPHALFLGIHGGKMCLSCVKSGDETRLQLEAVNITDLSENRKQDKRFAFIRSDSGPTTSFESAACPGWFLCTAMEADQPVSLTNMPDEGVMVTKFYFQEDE

APSA(200)-IL1Ra [2] = target: T4, APSA(200)-IL1Ra; assay: MAb capture ELISA, hybridoma supernatant on anti-mouse IgG Fc, DIG-labelled antigen titrated
T4 construct: Fusion protein produced in E. coli; Labelled with DIG-NHS in the MAb capture ELISA

PAS #1(200)-IL1Ra [3] = target: T5, PAS #1(200)-IL1Ra; assay: Western blot of the fusion protein after SDS-PAGE; anti-mouse IgG Fc-AP, BCIP/NBT [D]
T5 construct: PASylated fusion protein produced in E. coli; Biotinylated for the SPR measurements with Fabs

APSA(200)-IL1Ra [4] = target: T4, APSA(200)-IL1Ra; assay: SPR, MAb from hybridoma supernatant captured by anti-mouse antibody, antigen as analyte, bivalent analyte model
P/A #1 sequence = target: T1, P/A #1 sequence; assay: SPOT peptide array / hybridoma screening
hu4D5-PAS #1(200) = target: T6, hu4D5-PAS #1(200); assay: MAb capture ELISA, hybridoma supernatant on anti-mouse IgG Fc, antigen titrated
T6 construct: Detected with anti-human kappa light chain antibody in the capture ELISA

P/A #1(200)-IL1Ra [5] = target: T7, P/A #1(200)-IL1Ra; assay: Western blot of the fusion protein after SDS-PAGE; anti-mouse IgG Fc-AP, BCIP/NBT [F]
T7 construct: PASylated fusion protein produced in E. coli; Biotinylated for the SPR measurements with Fabs
T7 sequence (chain, as listed by the source limits assumed): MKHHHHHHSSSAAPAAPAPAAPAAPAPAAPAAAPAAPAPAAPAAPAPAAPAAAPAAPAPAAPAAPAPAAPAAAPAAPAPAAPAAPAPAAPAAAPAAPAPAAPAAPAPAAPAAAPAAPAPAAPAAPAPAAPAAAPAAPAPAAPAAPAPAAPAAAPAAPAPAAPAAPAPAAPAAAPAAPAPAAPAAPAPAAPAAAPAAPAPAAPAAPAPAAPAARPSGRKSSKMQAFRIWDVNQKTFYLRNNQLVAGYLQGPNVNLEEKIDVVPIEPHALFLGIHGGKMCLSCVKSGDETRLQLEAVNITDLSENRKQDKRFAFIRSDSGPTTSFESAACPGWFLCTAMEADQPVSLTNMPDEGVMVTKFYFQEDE

[6] = target: T8, anti-Galectin-PAS(200) Fab fragment; assay: SPR, MAb 1.1 covalently coupled to a CM5 chip, PASylated anti-Galectin Fab injected
T8 construct: also called PASylated humanized anti-Galectin Fab fragment; PAS-Fab
T8 sequence (chain, as listed by the source): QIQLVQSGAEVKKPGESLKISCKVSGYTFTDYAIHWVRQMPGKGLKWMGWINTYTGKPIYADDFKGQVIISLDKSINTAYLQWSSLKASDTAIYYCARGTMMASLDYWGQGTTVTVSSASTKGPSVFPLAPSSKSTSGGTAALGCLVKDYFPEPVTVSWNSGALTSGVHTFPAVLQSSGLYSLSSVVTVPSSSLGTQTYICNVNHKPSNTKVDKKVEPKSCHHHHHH

PAS #1(200)-IL1Ra [7] = target: T5, PAS #1(200)-IL1Ra; assay: SPR, MAb from hybridoma supernatant captured by anti-mouse antibody, antigen as analyte, bivalent analyte model
IL1Ra (Kineret/Anakinra) [8] = target: T3, IL1Ra (Kineret/Anakinra); assay: western blot, hybridoma supernatant 1:2000 or purified MAb 1:200000
hu4D5-P/A #1(200) [9] = target: T9, hu4D5-P/A #1(200); assay: MAb capture ELISA, hybridoma supernatant on anti-mouse IgG Fc, antigen titrated
T9 construct: Detected with anti-human kappa light chain antibody in the capture ELISA

P/A #1(200)-IL1Ra [10] = target: T7, P/A #1(200)-IL1Ra; assay: SPR, MAb from hybridoma supernatant captured by anti-mouse antibody, antigen as analyte, bivalent analyte model
hu4D5-P/A #1(200) [11] = target: T9, hu4D5-P/A #1(200); assay: MAb capture ELISA: MAb from hybridoma supernatant captured by anti-mouse IgG Fc, hu4D5-P/A#1(200) titrated (x axis: antigen concentration)
[12] = target: T2, PASylated Thymosin alpha 1; assay: sandwich ELISA in diluted rat plasma: MAb 2.1 coated as capture antibody, MAb 1.2-alkaline phosphatase as detection reagent; calibration curve

Binder | binding result (IL1Ra (Kineret/Anakinra) [1]) | Kd (APSA(200)-IL1Ra [2]) [nM] | binding result (PAS #1(200)-IL1Ra [3]) | Kd (APSA(200)-IL1Ra [4]) [nM] | binding result (P/A #1 sequence) | Kd (hu4D5-PAS #1(200)) [nM] | binding result (P/A #1(200)-IL1Ra [5]) | binding result [6] | Kd (PAS #1(200)-IL1Ra [7]) [nM] | binding result (IL1Ra (Kineret/Anakinra) [8]) | Kd (hu4D5-P/A #1(200) [9]) [nM] | Kd (P/A #1(200)-IL1Ra [10]) [nM] | EC50 (read off the curve) (hu4D5-P/A #1(200) [11]) [nM] | binding result [12]
B1 | no binding | 0.118 | no binding (tested: hybridoma supernatant diluted 1:2000) | 0.019 |  |  |  |  |  |  |  |  |  | 
B2 | no binding |  |  |  | no binding | 0.037 | no binding (tested: hybridoma supernatant diluted 1:2000) | binds | 1 |  |  |  |  | 
B3 |  |  |  |  |  | 0.113 |  |  | 1.7 | no binding | 0.17 | 0.429 | ~0.08 | binds
